From patent publication US20230242598A1, “FUNCTIONAL POLYPEPTIDES AND USE THEREOF” (priority 2020, published 2023)
Read-outs that look alike come from different tables or passages of the source.

Columns and labels:
[1] = test system: HeLa; conditions: cited from earlier work
[2] = test system: smooth muscle cell; conditions: Frew et al. 2008; cited from earlier work
[3] = test system: mice; conditions: i.p.; cited from earlier work
[4] = test system: L1210; conditions: Kobayashi et al. 1994; cited from earlier work
[5] = Isoelectric point by two-dimensional polyacrylamide gel electrophoresis (2-DE); format: physicochemical; conditions: IPG Strip 3-6
Experimental: Next, the isoelectric point of SOR was determined by two-dimensional polyacrylamide gel electrophoresis (2-DE). First, 443 μg of a sample was mixed with a rehydration solution (8 M urea, 0.5% 3-[(3-cholamidopropyl)dimethylammonio]-prop anesulfonic acid (CHAPS), 0.5% Bio-Lyte 3/10 (Bio-Rad Laboratories, Inc.), 0.2% dithiothreitol, 0.002% bromophenol blue). The obtained solution was applied to IPG Strip 3-6 (Bio-Rad Laboratories, Inc.). Isoelectric focusing electrophoresis was performed at 20° C. as follows: rehydration for 12 hours, 300 V for 30 minutes, 1000 V for 30 minutes, and 5000 V for 2 hours. After electrophoresis, the strip was equilibrated for 15 minutes with shaking in 2% SDS, 50 mM Tris-HCl, pH 8.8, 6 M urea, 30% glycerol, and 0.25% DTT. Subsequently, the strip was re-equilibrated for 15 minutes with shaking in 2% SDS, 50 mM Tris-HCl, pH 8.8, 6 M urea, 30% glycerol, and 4.5% iodoacetamide. The strip was put on a 12% polyacrylamide gel, and the second electrophoresis was performed in the same manner as in SDS-PAGE. The gel was stained with a silver staining kit (Wako Pure Chemical Industries, Ltd.).

[6] = test system: HeLa cells; assay: Cytotoxicity of SOR, Cell Counting Kit-8 (WST-8); format: cell-based, human; conditions: ratio of cytotoxicity, HeLa versus L1210
Experimental: The cytotoxicity of SOR was evaluated using L1210 (RBRC-RCB2844, Riken) and HeLa (RBRC-RCB0007, Riken) cells. RPMI1640 medium supplemented with 10% FBS was used for the L1210 cells, and EMEM supplemented with 10% FBS was used for the HeLa cells. The cells were precultured for 3 days (L1210) or 7 days (HeLa) using a CO2 incubator (37° C., 5% CO2). […]. SOR dissolved in a medium (200 μg/mL) was filtered ([…]), and serially diluted 2-fold, and the diluted products were added to wells in an amount of 10 μL/well such that the final concentration of SOR was 50 to 0.024 μg/mL. The cells of each line were incubated for 48 hours, and the growth of the cells was quantified using Cell Counting Kit-8 (Dojindo Laboratories Co., Ltd.) based on the WST-8 method according to manufacturer's protocol. Absorption at 450 nm was measured using a microplate reader, and a mean of triplicate data was plotted to prepare a concentration-response curve, followed by analysis using Prism software. […].

[7] = test system: Aplysia kurodai eggs; assay: Toxicity in Aplysia kurodai egg (influence on cleavage and development); format: in vivo
Experimental: Eggs were taken out of a newly deposited egg mass of Aplysia kurodai, and influence on cleavage was examined using the collected eggs. Eggs were taken out of the egg mass in artificial seawater (ASW) and gently centrifuged by hand centrifuge apparatus. The precipitated eggs were rinsed with ASW twice. Filtered natural seawater was added to a 24-well plate (2 mL/well), to which SOR (10 μL/well) and subsequently the liquid containing the eggs (20 μL/well) were added. Then, egg development was observed under microscope every few hours. […] Untreated control eggs underwent the second cleavage 6 hours after fertilization and developed into morula in 24 hours; […].

[8] = test system: mice (ddY, male); format: in vivo; conditions: i.c.v.
Experimental: Toxicity in mice was assessed by intracerebroventricularly injecting varying concentrations of SOR to mice (ddY, male, 3 to 4 weeks old, Japan SLC, Inc.) (Sakai et al., J Pharmacol Exp Ther. 2001; 296(2):650-8). […] […].

[9] = test system: Plasmid DNA (pTAC-1); assay: Cleavage of DNA by natural SOR, agarose electrophoresis; format: biochemical; conditions: SOR 8.8 μg/mL, with or without EDTA 12.5 mM, room temperature, 24 hours
Experimental: Plasmid DNA (pTAC-1, 4 ng, BioDynamics Laboratory, Inc.), or the plasmid DNA and EDTA (12.5 mM) were added to and mixed with a hydrophobic interaction chromatography fraction containing SOR (8.8 μg/mL) or a Tris-HCl buffer (pH 8.3) containing 0.1 M NaCl. The mixture was left at room temperature for 24 hours, separated by agarose electrophoresis, stained with ethidium bromide (15 min), and subsequently observed under UV light (260 nm). Thermo scientific GeneRuler 1 kb DNA Ladder (Thermo Fisher Scientific Inc.) was used as a marker.

[10] = test system: HeLa cells (derived from human uterine cervix cancer); assay: Intracellular translocation into HeLa cell, confocal laser microscope; format: cell-based; conditions: overall conclusion
Experimental: Whether SOR could translocate into cells and further into the nuclei was studied using fluorescently labeled SOR. […] Also, BSA labeled with FITC in the same manner as above was used as a control.
The same experiment as in the section (1) was also conducted for HeLa cells (derived from human uterine cervix cancer). A HeLa suspension prepared at approximately 2.2×10^4 cells/mL was added at 270 μL/well to 8-well chamber cover glass (Eppendorf) to make approximately 6.0×10^3 cells/well, followed by preculture at 37° C. for 24 hours in a 5% CO2 incubator. […] The cells thus supplemented with the sample was subjected to fixing and permeabilization treatment over each time period from 30 minutes to 16 hours, and stained with DAPI. Then, a mount was prepared.

C=C1[C@@H](C)[C@H]2[C@H](Cc3ccccc3)NC(=O)[C@]23[C@H](OC(C)=O)/C=C/[C@@](C)(O)C(=O)[C@@H](C)C/C=C/[C@H]3[C@@H]1O [Cytochalasin D]
IC50 ([1]; Miranda et al. 1974): 100 nM

C=CC[C@H](C)[C@H](C)C[C@@H](O)[C@H](O)[C@@H]1CC[C@@]2(C)O[C@@]3(C)C[C@@]4(C)O[C@H]5/C=C\C[C@H]6O[C@H]7C[C@H]8O[C@H]9C[C@@]%10(C)O[C@@](C)([C@@H]%11CC[C@H]%12O[C@@]%13(C)C[C@H]%14O[C@@]%15(C)C[C@H]%16O[C@@]%17(C)C[C@@H](O)[C@H]([C@@H]%18O[C@H]%19[C@H](O)[C@@H](O)[C@H](C[C@H](O)C[C@@H](O)[C@@H]%20O[C@H]%21[C@H](O)[C@@H](O)[C@H]([C@@H]%22O[C@@H]%23[C@H](O)[C@H]%24O[C@H]%25C[C@H]%26O[C@@H](C[C@H](O)[C@@H](O)[C@H]%27O[C@H]%28[C@H](O)[C@H]%29O[C@H]%30C[C@H]%31O[C@H]%32[C@@H](O)[C@@H](O)[C@H]([C@H](C)[C@H](O)[C@H](C)CC[C@H](OS(=O)(=O)[O-])[C@H](O)[C@H](C)C[C@@H](O)C(=C)/C(C)=C/CO)O[C@@H]%32[C@H](O)C[C@]%31(C)O[C@@H]%30C[C@]%29(C)O[C@@H]%28C[C@H]%27O)[C@H](OS(=O)(=O)[O-])[C@H](O)[C@@H]%26O[C@@H]%25C[C@@H]%24O[C@H]%23[C@H](O)[C@H]%22O)O[C@H]%21C[C@H]%20O)O[C@H]%19C[C@H]%18O)O[C@@H]%17[C@H](O)[C@]%16(C)O[C@@H]%15CC[C@]%14(C)O[C@@H]%13C[C@@H]%12O%11)[C@H](O)C[C@@H]%10O[C@]9(C)CC[C@]8(C)O[C@]7(C)C[C@@H]6O[C@@H]5C[C@@H]4O[C@@H]3C[C@@H]2O1.[Na+].[Na+] [Maito toxin]
IC50 [2]: ~0.058 nM | Lethal dose [3]: 37.9 pmol/kg

CC(=O)O[C@H]1C(=O)[C@@]2(C)[C@H]([C@H](OC(=O)c3ccccc3)[C@]3(O)C[C@H](OC(=O)[C@H](O)[C@@H](NC(=O)c4ccccc4)c4ccccc4)C(C)=C1C3(C)C)[C@]1(OC(C)=O)CO[C@@H]1C[C@@H]2O [Paclitaxel]
IC50 ([1]; Liebmann et al. 1993): 2.6 nM

CO[C@H]1C[C@H](CC[C@H](C)[C@H](O)[C@H](C)[C@H]2OC(=O)/C=C/C(C)=C/C[C@H](O)C[C@@H]3C=CC[C@@H](C[C@H](OC)[C@@H](C)[C@@H](O)C[C@@H](O)[C@H](C)[C@@H]([C@@H](C)[C@@H](O)[C@@H](C)CC[C@H]4C[C@H](OC)C[C@H](C)O4)OC(=O)/C=C/C(C)=C/C[C@H](O)C[C@@H]4C=CC[C@@H](C[C@H](OC)[C@@H](C)[C@@H](O)C[C@@H](O)[C@@H]2C)O4)O3)O[C@@H](C)C1 [Swinholide A]
IC50 [4]: 22 nM

B1: soritesidine (protein)
chain: HFSLKRQDSSITHQTVSIFCITILLLSVSAYFPNSIPEAQAKLGDQRQIDIASWNTFDFGGKFGGVCKANDPTILQAMTDVISQHDVILVQEIANVTNPCNPANIFSGFNNLCSNNYLGGLGYLCQDTGIVGSGEGYGIIYKNNTGIGNVVIERTDNPNTVPYIPAGGGNNQMKRPPMKATLDFNAGAFNVVVYNAHTSPSGGVPKEIKLLSDRISPAHNPLDKNAVITLGDLNADGKRRLPNGQLDHGTDYYRGGFAAHPNDFPVSGWQQTVTDTDVTNFAQTLRAYDRMILSNATHNSYDEYGIIGGIPNPLPYPGGVYPAGTLFKNVHTGGGNTGKALSDHRLIWSKLNYGAIETTDNNGNTKSNFVEFTNPPQCTAPDTVYAKGADFVPNRTVDIYITKQPDNQNFIPLPQPQNPTNPGQFKQVGESYQLTDVRTTGKSTHNIDANGNIANTAVWVQPTPNQQYNLIVDVDRDGYFTNSIDIVDAFNTQGFDVDPCLRKRLAASLSDGIPAGDGTRDFVKPPKIFISGDWFPQGSARIYIIIYDKNFDYNGNDSKVLTDVRGTYDTITVGENHKFTGLEWSSPHVGNYNIIFDANSDGVYKKSDGDIVDHINEIGFAMLESYPHHSHIVDLDDNANQREDFNSGIAKNVYVLATNLPNPSTIVDVYVISEKLLKLNNPGWTTWQQSSNVPLKESAAPTNNGDRLHPTWVTPQKTVFGSVWHMPGDTFDPPYINYYGKKFTIVIDVNRDGKYDPSIDMVDTHDIGDMTDWFITQGHHDLSPTSGNGQPAVSEYKEYLNSKLDLENPLDNTNNYDAATEAASAQYLCRTNLPINLFENVIELGAQTGFIMFNPDEYYAGRDLNSGRHIYDAVDFDGLEINDGYTSVISAKEMTLNRLGVGQNSNLLTCGADTVTIDGMSTQKDSTTNIVAKTISHKSNISLEADTCTHYTHNLYFESDTNILVKAIESPFAWIIDVGDRILPGTGC
isoelectric point (pI) [5]: approximately 4.5 | selectivity for the HeLa cells over the L1210 cells [6]: approximately 200 times | influence on egg cleavage and development ([7]; SOR 1.3 ng/mL): overall shape of the cells was shrunken and bubble-like protrusions on the cell surface were often observed, though development progressed | influence on egg cleavage and development ([7]; SOR 1.3 μg/mL, 24 hours): only two blastomeres were observed even 24 hours later | influence on the morphology of the eggs ([7]; varying SOR concentrations): concentration-dependent influence on the morphology of the eggs | Lethal dose [8]: 1.60 pmol/kg | acute toxicity [8]: no acute toxicity was observed | dosage causing lethal toxicity [8]: 5.74 ng/mouse | time to death ([8]; 574 ng of SOR): 18 h | time to loss of normal posture ([8]; 574 ng of SOR): 17 h | time to loss of voluntary movement ([8]; 574 ng of SOR): 14 h | eye observation after administration ([8]; 14 hours or later after administration): Reddish ring around eyes was observed | cleavage of DNA [9]: cleaved DNA in a metal ion-dependent manner | intracellular translocation [10]: intracellular translocation of SOR was confirmed
